# B1: His-TFIIEβ/WT [not stated] / Flag-TFIIEα [not stated] (parent)
# chain 1: MDPSLLRERELFKKRALSTPVVEKRSASSESSSSSSKKKKTKVEHGGSSGSKQNSDHSNGSFNLKALSGSSGYKFGVLAKIVNYMKTRHQRGDTHPLTLDEILDETQHLDIGLKQKQWLMTEALVNNPKIEVIDGKYAFKPKYNVRDKKALLRLLDQHDQRGLGGILLEDIEEALPNSQKAVKALGDQILFVNRPDKKKILFFNDKSCQFSVDEEFQKLWRSVTVDSMDEEKIEEYLKRQGISSMQESGPKKVAPIQRRKKPASQKKRRFKTHNEHLAGVLKDYSDITSSK
# chain 2: MADPDVLTEVPAALKRLAKYVIRGFYGIEHALALDILIRNSCVKEEDMLELLKFDRKQLRSVLNNLKGDKFIKCRMRVETAADGKTTRHNYYFINYRTLVNVVKYKLDHMRRRIETDERDSTNRASFKCPVCSSTFTDLEANQLFDPMTGTFRCTFCHTEVEEDESAMPKKDARTLLARFNEQIEPIYALLRETEDVNLAYEILEPEPTEIPALKQSKDHAATTAGAASLAGGHHREAWATKGPSYEDLYTQNVVINMDDQEDLHRASLEGKSAKERPIWLRESTVQGAYGSEDMKEGGIDMDAFQEREEGHAGPDDNEEVMRALLIHEKKTSSAMAGSVGAAAPVTAANGSDSESETSESDDDSPPRPAAVAVHKREEDEEEDDEFEEVADDPIVMVAGRPFSYSEVSQRPELVAQMTPEEKEAYIAMGQRMFEDLFE
# Variants of: B1
# Experiment: co-immunoprecipitation (IP of IIEα), immunoblot quantified
# Details: with Flag-TFIIEα, n = 3, means ± s.d., read off a plot
screen value (150 mM KCl),screen value (500 mM KCl),Variant
0.78 a.u.,0.67 a.u.,chain 1 A150P
0.85 a.u.,0.45 a.u.,chain 1 D187Y
